From article PMC5351860, “Novel fimbrilin PGN_1808 in Porphyromonas gingivalis” (PLoS ONE, 2017)

Target: the molecule itself
Assay: SDS-PAGE after partial denaturation; fractionated fimbriae in loading buffer with 1% SDS and 0.5 M 2-mercaptoethanol heated at 37, 60 and/or 80°C for 10 min; CBB staining and western blotting

B1: Mfa1 (Mfa1 fimbriae purified from the fimA gene-deletion mutant of P. gingivalis ATCC 33277) (natural protein)
chain: AGDGQDQANPDYHYVGEWAGKDKIEKVSIYMVPQGGPGLVESAEDLDFGTYYENPTIDPATHNAILKPKKGIKVNSAVGKTVKVYVVLNDIAGKAKALLANVNAADFDAKFKEIIELSTQAQALGTVADGPNPATAAGKIAKKNGTTDETIMMTCLQPSDALTIEAAVSEANAIAGIKNQAKVTVERSVARAMVSTKAQSYEIKATTQIGEIAAGSVLATITDIRWVVAQGERRQYLSKKRGTVPENTWVTPGSGFVPTSSTFHTNATEYYDYAGLWEDHNTNEAVISGTQVPTLADYQLQDVTGELANALSGKFLLPNTHKSGANAASSDYKRGNTAYVLVRAKFTPKKEAFIDRGKTYSDNTAVPEYVAGEDFFVGENGQFYVSMKSVTDPKVGGVAGMKAHKYVKGKVLYYAWLNPSTTSPDSWWNSPVVRNNIYHIHIKSIKKLGFNWNPLVPDPDPSNPENPNNPDPNPDEPGTPVPTDPENPLPDQDTFMSVEVTVLPWKVHSYEVDL
notes: source: fimA gene-deletion mutant derived from P. gingivalis ATCC 33277; fractionated by ammonium sulfate precipitation and DEAE Sepharose chromatography
binding result: binds
